From article PMC1326243 (Nucleic Acids Research, 2006)

B1: Bacillus subtilis LrpC (natural protein, B. subtilis, UniProt P96582 1-144, looked up)
chain: MKLDQIDLNIIEELKKDSRLSMRELGRKIKLSPPSVTERVRQLESFGIIKQYTLEVDQKKLGLPVSCIVEATVKNADYERFKSYIQTLPNIEFCYRIAGAACYMLKINAESLEAVEDFINKTSPYAQTVTHVIFSEIDTKNGRG
B2: B.subtilis RecU Holliday-junction resolvase (enzyme, B. subtilis, UniProt P39792 1-206, looked up)
chain: MIRYPNGKTFQPKHSVSSQNSQKRAPSYSNRGMTLEDDLNETNKYYLTNQIAVIHKKPTPVQIVNVHYPKRSAAVIKEAYFKQSSTTDYNGIYKGRYIDFEAKETKNKTSFPLQNFHDHQIEHMKQVKAQDGICFVIISAFDQVYFLEADKLFYFWDRKEKNGRKSIRKDELEETAYPISLGYAPRIDYISIIEQLYFSPSSGAKG

Biological target: the molecule itself
Assay: cross-linking

Row | Protein | stoichiometry N
1 | B1 | ≥ 2
2 | B2 | 2
